Laboratory results as given in patent publication US20240093191A1, “COMPOSITIONS AND METHODS FOR TREATING DISEASE ASSOCIATED WITH DUX4 OVEREXPRESSION” (RESEARCH INSTITUTE AT NATIONWIDE CHILDREN'S HOSPITAL, priority 2021, published 2024).

B1: H1.mir-675: commercially available H1 promoter mir-675 expression plasmid (SBI Biosciences) (nucleic acid)
DNA: GAACGCTGACGTCATCAACCCGCTCCAAGGAATCGCGGGCCCAGTGTCACTAGGCGGGAACACCCAGCGCGCGTGCGCCCTGGCAGGAAGATGGCTGTGAGGGACAGGGGAGTGGCGCCCTGCAATATTTGCATGTCGCTATGTGTTCTGGGAAATCACCATAAACGTGAAATGTCTTTGGATTTGGGAATCTTATAAGTTCTGTATGAGACCACCCCCCAGGGTCTGGTGCGGAGAGGGCCCACAGTGGACTTGGTGACGCTGTATGCCCTCACCGCTCAGCCCCTGGGGAATTCTTCGATTCTGCTTTTTT
B2: U6.mir-675: U6 promoter-driven mir-675 expression plasmid with 40 nt 5' and 47 nt 3' flanking sequences (nucleic acid)
DNA: GACGCCGCCATCTCTAGGCCCGCGCCGGCCCCCTCGCACAGACTTGTGGGAGAAGCTCGGCTACTCCCCTGCCCCGGTTAATTTGCATATAATATTTCCTAGTAACTATAGAGGCTTAATGTGCGATAAAAGACAGATAATCTGTTCTTTTTAATACTAGCTACATTTTACATGATAGGCTTGGATTTCTATAAGAGATACAAATACTAAATTATTATTTTAAAAAACAGCACAAAAGGAAACTCACCCTAACTGTAAAGTAATTGTGTGTTTTGAGACTATAAATATCCCTTGGAGAAAAGCCTTGTTTGCGTTTAGTGAACCGTCAGATGGTACCGTTTAAACTCGAGCCCAGGGTCTGGTGCGGAGAGGGCCCACAGTGGACTTGGTGACGCTGTATGCCCTCACCGCTCAGCCCCTGGGACTAGAGCGGCCGCCACAGCGGGGAGATCCAGACATGATAAGATACATTTTTT

Key:
DUX4-mir-675Res = assay: Western blot against mir-675-resistant DUX4 construct (CMV.DUX4-mir-675Res) in HEK293 cells; type: cell-based, human; settings: FIG. 20; blinded western blot
Source text: Sequence Generation and Cloning. All miRNAs used in this study were designed as previously reported in [Wallace et al., Mol. Ther. Methods Clin. Dev. 8:121-130 (2018)]. All miDUX4s were cloned into the mir-30 based/U6 construct as previously described [Wallace et al., Mol. Ther. 20:1417-23 (2012)]. MicroRNA-675 sequence was obtained from the miRBase database (www.mirbase.org), and all mir-675 constructs used in this study were cloned into an expression plasmid downstream of an RNA polymerase III class of promoters (U6 or H1 promoters). The sequence of the stem loop structure of mir-675, mir-675-5p and mir-675-3p constructs is shown in FIG. 17A-B. The CMV.H19 construct was purchased from OriGene. The psi2-DUX4FI was PCR amplified using the AAV.CMV.DUX44V5 construct as template, and the following primers: forward primer: […] (SEQ ID NO: 127), and reverse primer: […] (SEQ ID NO: 128). The PCR product was then cloned into a previously designed psicheck2 (psi2) SD5 mutant (Renilla luciferase have the SD5 mutant) plasmid [Ansseau et al., Plos One 10: e0118813 (2015)] using XhoI/SpeI restriction sites and the psi2.SD5 mutant-DUX4 3′UTR plasmid backbone. […] In addition, this plasmid contains a cytomegalovirus promoter (CMVp)-driven DUX4 full-length sequence encompassing the DUX4 open reading frame (DUX4 ORF), the DUX4 3′UTR sequence (pLAM sequence). […]

mir-675-5p = assay: Small-transcript northern blot of mir-675 processing in HEK293 cells; type: cell-based, human; settings: for mature mir-675-5p bands on northern blot: HEK293, anti-mir-675-5p biotinylated probe
Source text: Small-Transcript Northern Blots. […] (SEQ ID NO: 148)).

Molecule | effect on DUX4 protein level of mir-675-resistant DUX4 construct (DUX4-mir-675Res) | mature mir-675-5p produced at 48h versus 24h post-transfection (mir-675-5p) [fold] | mature mir-675-5p abundance relative to U6.mir-675-generated (mir-675-5p; 24 h post-transfection) [fold] | mature mir-675-5p abundance relative to U6.mir-675-generated (mir-675-5p; 48 h post-transfection) [fold] | mature mir-675-5p bands on northern blot (mir-675-5p)
B1 | not able to reduce DUX4 protein level | 1.4 | 13 | 23 | abundant levels of the mature mir-675-5p
B2 | not able to reduce DUX4 protein level |  |  |  | low levels of the mature mir-675-5p
